Measurements taken from paper PMC8535469, “Insight into the Binding and Hydrolytic Preferences of hNudt16 Based on Nucleotide Diphosphate Substrates” (International Journal of Molecular Sciences, 2021).

Molecular target: the molecule itself
Experiment: SAXS; 2.618 mg/mL hNudt16 in 20 mM HEPES pH 7.9, 300 mM NaCl, 10% glycerol, 0.5 mM TCEP, 20 mM MgCl2; room temperature; scattering compared with crystal structures of the dimer (CRYSOL) and ab initio model (DAMMIN)

B1: human Nudt16 protein (hNudt16), wild type (enzyme, UniProt Q96DE0 1-195, looked up)
chain: MAGARRLELGEALALGSGWRHACHALLYAPDPGMLFGRIPLRYAILMQMRFDGRLGFPGGFVDTQDRSLEDGLNRELREELGEAAAAFRVERTDYRSSHVGSGPRVVAHFYAKRLTLEELLAVEAGATRAKDHGLEVLGLVRVPLYTLRDGVGGLPTFLENSFIGSAREQLLEALQDLGLLQSGSISGLKIPAHH
notes: human Nudt16 (hNudt16), NUDIX hydrolase; also called hNudt16 WT
stoichiometry N: 2
